Reference: the nanobody polyreactivity screen of Harvey et al. (2022)

Test: yeast display, Sf9 membrane polyspecificity reagent, FACS + sequencing; frameworks hold sequencing errors
Method in brief: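 Sorting gates, low and high (top ~1%), were placed on anti-HA fluorescence to track expression and on streptavidin fluorescence to track reagent binding. A clone's polyreactivity label is taken from the gate it came out of. The reagent was 10% biotinylated, detergent-solubilized Sf9 membrane, applied for 1 hour at 4 °C to galactose-induced yeast display cells.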
For “QVHLVESGGGLVQSRGSLRLSCAASGNIFGNNAMGWYRLAPGKERELVAAISSSGTSTYYADSVKGRFTISRDNAKNTVYLQMNSLKPEDTEVYYCNADPLPYDGYYDYDYWGQGTQVTVSS”, the “polyreactivity (PSR sort gate)” value was “low polyreactivity”. With “QVQLQECGGGLVQAGRSLRLSCAASGTFSNSVKWLYCQAPGKEREFVATIGVGGSTNYADSVKGRFTISRDNAKYTVYLQMNSLKPEDTGVYHCAGYGAASNFHYDRGQGTQVTVSS” the “polyreactivity (PSR sort gate)” value was “low polyreactivity”. With “QVQLVESGGGLGQAGGSLRLSCAASGSTFARNTMGWYRQAPGKERELVAVITRGDSTYYADSVKGRFTISRDNAKNTVNLQMNSLKPEDTAVYYCNAYFRYAYPSKMDYWGQGTQVTVSS” the “polyreactivity (PSR sort gate)” value was “low polyreactivity”. For “QVQLVESGGGLVQAGGSLRLSCAASGSIFGVYAMGWYRQAPGTERELVAAISSRGSSTYYADSVKGRFTISRDNAKKTVYLQMLSLKPEDTAVYYCAARPGIRSYPPGYGYWGQGTQGTVSS”, the “polyreactivity (PSR sort gate)” value was “high polyreactivity”. In the case of “QVQLVESGGGLVQARGSLRLSCPASGSIFSLNAMGWYRQAPGKERELVASISRGGSTNYADSVKGRFTISRDNAKNTVYLQMNSLKPEDTAVYYCAAYWYYYTKSQSSYRFDYWGQGTQVTVSS”, the “polyreactivity (PSR sort gate)” value was “low polyreactivity”. With “QVHLVESGGGLVQAGGSLRLSCAASGFTFYRYAMGWYRQAPGKERELVAAISRRGVSTDYADSVKGRFTISRDNAKNTVYLQMNSLKPEDTAVYYCAASYSRGVGKFGYWGQGSQVTVSS” the “polyreactivity (PSR sort gate)” value was “high polyreactivity”. For “QVQLVESGGGLVQAGGSLRLSCAASGYIFGDYVMGWYRQAPGKERELVAAISSSGDTNYADSVKGRFTISRDNAKNTVYLQMNSLKPEDTAVYYCAAVDWIGRVHGKPWGGDYWGQGTQVTVSS”, the “polyreactivity (PSR sort gate)” value was “low polyreactivity”. In the case of “QVQLVESGGGLVQAGGSLRLSCHATGFTFTIYAMGWYRQAPGKERELVATISGRAGRTYYADSVKGRFTISRDIAKNTVYLQMNSLKPEDTAVYYCNAGQWRYPGLYYYWGKGTQVTVSS”, the “polyreactivity (PSR sort gate)” value was “high polyreactivity”. With “QVQLVESGGGLVQAGGSLRISCAASGSTFLINAMGWYRQAPGKERELVAAIRYSGGRTYYADSVKGRFTISRDNAKNTVYLQMNSLKPEDTAVYYCNARPYRSQIGVHYDYWGQGTQVTVSS” the “polyreactivity (PSR sort gate)” value was “high polyreactivity”. With “QVQLVESGGGLVQAGGSLRLSCAASGIIFGRYAMGWYRQAPGKERELVAAISSRGGSTYYADSVKGRFTISRDNAKNTVYLQMNSLKPEDTAVYYCNKDDERGKLYYWGQGTQVTVSS” the “polyreactivity (PSR sort gate)” value was “high polyreactivity”. In the case of “QVKLVDSAGGLVQAGVILRLRCAASGSIVRPNAMGWYSQATGKERELVAAITSSGTTNYADSVKVRFTISRDNAKNTVYLQMNSLKPEDTAVYYCAAERKDGGYGYGVWDYYPGENMDYWGQGTQVTVSS”, the “polyreactivity (PSR sort gate)” value was “low polyreactivity”. With “QVQLVESGGGLVQAGGILRLSCAASGYIFGPNAMGCYRQAPGKERELVAGITWSTGNTYYAVSVKGRFTISRDNAKNTVYLHMNSLKPEDTAVYYCAADFYVAYEGVQPYWMDYWGQGTQVNVSS” the “polyreactivity (PSR sort gate)” value was “low polyreactivity”. For “QVQLVESGGGLVQAGGSLRLSCAASGFTFTYYAMGWYRQAPGKERELVAAISWSSDSTYYADSVKGRFTISRDNAKNTVYLQMNSLKPEDTAVYYWAARPGSKNVEYYYWGQGTQVTVSS”, the “polyreactivity (PSR sort gate)” value was “low polyreactivity”. With “QVQLVESGGGLVQAGGSLRLSCAASGITFRFYAMGWYRQPPGKERELVAAITSGGGTYYADSVKGRFTISRDNAKNTVYLQMNSLKPEDTAVYYCAAYQYNRKRHNYWGLGTQVTVSS” the “polyreactivity (PSR sort gate)” value was “high polyreactivity”. In the case of “QVQLVESGGGLVQAGGSLRLSCDASGSTIIRNAMGWSRQAPGKERELVAAISTSGGRTHYADSVKGRFTISRDNAKNTVYLKMNSLKPEDTAVYYCATRGKGHYYYWGQGTQVTVSS”, the “polyreactivity (PSR sort gate)” value was “high polyreactivity”. For “QVQLVESGGGLVQAGGSLRLSCAASGSIFSTYAMGWYRQAPGKERELVAAISGSGGRTYYADSVKGRFTISRDNAKNTVYLQMNSLKPEDTAVYDCASRVFRGLGEYYWGQGTQVTVSS”, the “polyreactivity (PSR sort gate)” value was “high polyreactivity”. With “QVQLVESGGGLVQAGGSLRLSCASSGGISYYYYAMGWYRQAPGKERELVAAISSDDDTYYADSVKGRFTISRDNAKNTVYLQMNSLKPEDTAVYYCAAEYDVVGPSIYGYLFYYWGQGTQVTVSS” the “polyreactivity (PSR sort gate)” value was “high polyreactivity”. In the case of “QVQLVESGGGLVQAGGSLRLSCAASGIIFRPYAMGWYRQAPGKERELVAAITWSGTSTYYADSVKGRFTISRDNAKNTVYLQMNSLKPEDTAVYYCAATWSYGVSWYEYWGQGTQVTVSS”, the “polyreactivity (PSR sort gate)” value was “high polyreactivity”. With “QVQLVESGGGLVQAGGSLRLSCAASGIIFRYYAMGLYRQAPGKERELVAAITTGGSTYYADSVKGRFTISRDNAKNTVYLQMNSLKPEDTAVYYCAAQILVRHIPYYYWGQGTQVTVSS” the “polyreactivity (PSR sort gate)” value was “high polyreactivity”. For “QVQHVESGGGLVQAGGSLRLSCAASGNIFAVYAKGWYRQAPGKERELVAAITTGTNTYADSVKGRFTISRDNAKNTVYLQMNSLKPEDTAVYYCAARYYRPLDYWGQGTQLTVSS”, the “polyreactivity (PSR sort gate)” value was “low polyreactivity”. With “QVHLVESGGAFVQAGGSLRLSCAASGRTFGYKAMGWYRQAPVNERELVAAITAGGSTNYADSVKGRFTISRDNAKKTVELQMNRLKPEDTAVYDSAARTYYVPYYYWGQGTQVTVSS” the “polyreactivity (PSR sort gate)” value was “high polyreactivity”. With “QVQHVESVVGLVQAGGSLRLSCAASGSTFGPNAMGWSRQAPGKERELVAAITSGGRTYYADSVKGRFTISRDNAKNTVYLQMNSLKPEDTAVYYCAARVSVGVPRYEYWGQGTQVTVSS” the “polyreactivity (PSR sort gate)” value was “high polyreactivity”. For “QVQLVESGGGLVQAGGSLRLICAASGFTIYRYAMGWYRQAPGKERELVATIRRGGSTKYADSVKGRFTISRDNAKNTVYLQMNSLKPEDTAVYYCNARYYAAPDKYYYWGQGTQVTVSS”, the “polyreactivity (PSR sort gate)” value was “low polyreactivity”. In the case of “QVQLVESGGGLVQAGGSLRLSSAASGRTFYLNAMGWYRQAPGKERELVAAIRISGGSTYYADSVKGRFTISRDNAKNTVYLQMKSLKPEDTAVYYCIAGPYHALSPTVSEYGYWGQGSQVTVSS”, the “polyreactivity (PSR sort gate)” value was “low polyreactivity”. In the case of “QVQLVESGGGLVQAGGSLRLSCAASGSTFGYYAMGWSRQAPGKERELVAAITGSGGSTYYADSVKGRFTISRDNAKNTVYLQMNSLKPEDTAVYYCATSYLLGRYYEYYYWGQGTQVTVSS”, the “polyreactivity (PSR sort gate)” value was “high polyreactivity”. For “QVQLVESGGGLVQAGGSLRLSCAASGFTFYGNAMGWYRQAPGKERELVAAISSSGGITYYADSVKGRFTISRDNAKNTVYLQMNSLKPEDTAVYYCAAVQGTPDYEYDSWGQGTQVTVSS”, the “polyreactivity (PSR sort gate)” value was “low polyreactivity”. With “QVQLVESGGGLVQAGGSLRLSSAASGNTIYGYAMGWYRQAPGNERELVASITLSGDSTYYADSVKGRFTISRDNAKNTVYLQMNSLKPEDTAVYYCAGVYTYPLGYYHYTYDYWGQGTQVTVSS” the “polyreactivity (PSR sort gate)” value was “low polyreactivity”. In the case of “QVQLVESGGGLVQAGGSLRLSCAASGYTFVGYAMGWYRQAPGKERELVAAITNGGNTNYADSVKGRFTISRDNAKNTVYLQMNSLKPEDTAVYYCATRHSRRYSWIKYYGIGYDYWGQGTQVTVSS”, the “polyreactivity (PSR sort gate)” value was “high polyreactivity”. With “QVQLVESGGGLVHAGGSIRLSCAASGRIFPAYAMGWYRQAPGKERELVASIRRGGITYADSVKGRFTISRDNAKNTVYLQMNSLKPEDTAVYYCNADYRGWVYHMDYWGQGTQVTVSS” the “polyreactivity (PSR sort gate)” value was “low polyreactivity”. With “QVQLVESGGGVVQAGGSLRLSCAASGTTFSWYAMGGYRQAPGKERVLVAAISSGGSTNYADSVKGRFTISRDNAKNTVYLQMNSLKPEDTAVYYCAAVWSRYLISYSTGWWFEYWGQGTQVTVSS” the “polyreactivity (PSR sort gate)” value was “low polyreactivity”. In the case of “QVQLVESGGGLVQAGGSLRLSCAASGFTFAKYVMGWYRQAPGKERELVAAISFSGGSTYYADSVKGRFTISRDNAKNTVYLQMNSLKPEDTAVYYCAALSDSRWHRFGYWGQGTQVTVSS”, the “polyreactivity (PSR sort gate)” value was “high polyreactivity”.
